Laboratory results as given in the supplement of paper PMC10567573.

B1: TCAP (parent)
chain: YQRVLPLPIFTPAKMGATKEERED
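Note: lentivirally expressed fusions sorted by FACS into six bins by GFP to DsRed ratio, PSI derived from sequencing read proportions per bin multiplied by bin number.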

Variants of: B1
Experiment: protein stability index of a GFP-peptide fusion (GPS, HEK-293T) (PSI 1-6); higher = more stable
Conditions: c terminus: a fixed tail appended
Work on YQRVLPLPIFTPAAMGATKEERED [K14A] yielded a protein stability index of 1.64. In the case of YQRVLPLPIFTPATMGATKEERED [K14T], the protein stability index is reported as 1.99. YQRVLPLPIFTPAVMGATKEERED [K14V] gave a protein stability index of 2.78. YQRVLPLPIFTPADMGATKEERED [K14D] showed a protein stability index of 3.13. YQRVLPLPIFTPAHMGATKEERED [K14H] showed a protein stability index of 2.18. YQRVLPLPIFTPAEMGATKEERED [K14E] showed a protein stability index of 2.63. YQRVLPLPIFTPANMGATKEERED [K14N] showed a protein stability index of 2.32. YQRVLPLPIFTPAPMGATKEERED [K14P] showed a protein stability index of 2.62. YQRVLPLPIFTPAMMGATKEERED [K14M] showed a protein stability index of 1.77. YQRVLPLPIFTPAQMGATKEERED [K14Q] gave a protein stability index of 2.32. With YQRVLPLPIFTPASMGATKEERED [K14S] the protein stability index was 2.46. Work on YQRVLPLPIFTPALMGATKEERED [K14L] yielded a protein stability index of 1.81. With YQRVLPLPIFTPACMGATKEERED [K14C] the protein stability index was 1.69. With YQRVLPLPIFTPAWMGATKEERED [K14W] the protein stability index was 1.59. YQRVLPLPIFTPARMGATKEERED [K14R] showed a protein stability index of 2.21. YQRVLPLPIFTPAFMGATKEERED [K14F] gave a protein stability index of 2.04. Work on YQRVLPLPIFTPAGMGATKEERED [K14G] yielded a protein stability index of 2.65. Variant YQRVLPLPIFTPAYMGATKEERED [K14Y] has a protein stability index of 1.97. Work on YQRVLPLPIFTPAKMGVTKEERED [A17V] yielded a protein stability index of 1.76. YQRVLPLPIFTPAKMGHTKEERED [A17H] showed a protein stability index of 2.06. For YQRVLPLPIFTPAKMGWTKEERED [A17W], the protein stability index was 2.11. Variant YQRVLPLPIFTPAKMGCTKEERED [A17C] has a protein stability index of 2.24. YQRVLPLPIFTPAKMGPTKEERED [A17P] gave a protein stability index of 1.97. In the case of YQRVLPLPIFTPAKMGLTKEERED [A17L], the protein stability index is reported as 1.67. YQRVLPLPIFTPAKMGSTKEERED [A17S] showed a protein stability index of 2.02. For YQRVLPLPIFTPAKMGMTKEERED [A17M], the protein stability index was 2.38. Work on YQRVLPLPIFTPAKMGNTKEERED [A17N] yielded a protein stability index of 2.08. YQRVLPLPIFTPAKMGITKEERED [A17I] gave a protein stability index of 1.84. For YQRVLPLPIFTPAKMGTTKEERED [A17T], the protein stability index was 1.78. Work on YQRVLPLPIFTPAKMGYTKEERED [A17Y] yielded a protein stability index of 1.89. YQRVLPLPIFTPAKMGDTKEERED [A17D] gave a protein stability index of 2.1. YQRVLPLPIFTPAKMGFTKEERED [A17F] gave a protein stability index of 1.74. YQRVLPLPIFTPAKMGRTKEERED [A17R] showed a protein stability index of 2.05. YQRVLPLPIFTPAKMGETKEERED [A17E] showed a protein stability index of 2.07. Variant YQRVLPLPIFTPAKMGKTKEERED [A17K] has a protein stability index of 2.21. For YQRVLPLPIFTPAKMGQTKEERED [A17Q], the protein stability index was 1.86. In the case of YQRVLPLPIFTPAKMGGTKEERED [A17G], the protein stability index is reported as 1.72. YQRVLPLPIFTPAKMLATKEERED [G16L] gave a protein stability index of 1.81. With YQRVLPLPIFTPAKMYATKEERED [G16Y] the protein stability index was 2.07. For YQRVLPLPIFTPAKMMATKEERED [G16M], the protein stability index was 1.56. With YQRVLPLPIFTPAKMCATKEERED [G16C] the protein stability index was 2.06. Work on YQRVLPLPIFTPAKMIATKEERED [G16I] yielded a protein stability index of 1.92. For YQRVLPLPIFTPAKMHATKEERED [G16H], the protein stability index was 1.34. Work on YQRVLPLPIFTPAKMPATKEERED [G16P] yielded a protein stability index of 1.96. For YQRVLPLPIFTPAKMDATKEERED [G16D], the protein stability index was 1.92. Work on YQRVLPLPIFTPAKMVATKEERED [G16V] yielded a protein stability index of 2.39. With YQRVLPLPIFTPAKMSATKEERED [G16S] the protein stability index was 2.16. Variant YQRVLPLPIFTPAKMKATKEERED [G16K] has a protein stability index of 1.7. YQRVLPLPIFTPAKMFATKEERED [G16F] showed a protein stability index of 2.14. For YQRVLPLPIFTPAKMQATKEERED [G16Q], the protein stability index was 2.24. For YQRVLPLPIFTPAKMAATKEERED [G16A], the protein stability index was 1.9. In the case of YQRVLPLPIFTPAKMRATKEERED [G16R], the protein stability index is reported as 2.05. Work on YQRVLPLPIFTPAKMTATKEERED [G16T] yielded a protein stability index of 1.95. YQRVLPLPIFTPAKMEATKEERED [G16E] gave a protein stability index of 2.16. Work on YQRVLPLPIFTPAKMWATKEERED [G16W] yielded a protein stability index of 1.8. Variant YQRVLPLPIFTPAKMNATKEERED [G16N] has a protein stability index of 1.67. In the case of YQRVLPLPIFTPAKMGATGEERED [K19G], the protein stability index is reported as 2.42. With YQRVLPLPIFTPAKMGATWEERED [K19W] the protein stability index was 1.81. Work on YQRVLPLPIFTPAKMGATTEERED [K19T] yielded a protein stability index of 2.12. In the case of YQRVLPLPIFTPAKMGATMEERED [K19M], the protein stability index is reported as 2.5. Work on YQRVLPLPIFTPAKMGATVEERED [K19V] yielded a protein stability index of 1.63. With YQRVLPLPIFTPAKMGATLEERED [K19L] the protein stability index was 1.8. For YQRVLPLPIFTPAKMGATREERED [K19R], the protein stability index was 2.02. YQRVLPLPIFTPAKMGATFEERED [K19F] gave a protein stability index of 1.93. With YQRVLPLPIFTPAKMGATCEERED [K19C] the protein stability index was 1.78. Variant YQRVLPLPIFTPAKMGATIEERED [K19I] has a protein stability index of 2.06. YQRVLPLPIFTPAKMGATYEERED [K19Y] gave a protein stability index of 2.01. With YQRVLPLPIFTPAKMGATHEERED [K19H] the protein stability index was 1.8. YQRVLPLPIFTPAKMGATSEERED [K19S] gave a protein stability index of 2.08. With YQRVLPLPIFTPAKMGATQEERED [K19Q] the protein stability index was 1.91. For YQRVLPLPIFTPAKMGATNEERED [K19N], the protein stability index was 2.1. In the case of YQRVLPLPIFTPAKMGATDEERED [K19D], the protein stability index is reported as 2.03. In the case of YQRVLPLPIFTPAKMGATAEERED [K19A], the protein stability index is reported as 2.02. Work on YQRVLPLPIFTPAKMGATPEERED [K19P] yielded a protein stability index of 2.21. Variant YQRVLPLPIFTPAKMGATEEERED [K19E] has a protein stability index of 2.09. YQRVLPLPIFTPAKMGATKEEGED [R22G] showed a protein stability index of 2.47. For YQRVLPLPIFTPAKMGATKEEAED [R22A], the protein stability index was 1.9. Variant YQRVLPLPIFTPAKMGATKEEIED [R22I] has a protein stability index of 1.93. For YQRVLPLPIFTPAKMGATKEESED [R22S], the protein stability index was 1.76. Variant YQRVLPLPIFTPAKMGATKEETED [R22T] has a protein stability index of 1.86. Work on YQRVLPLPIFTPAKMGATKEEDED [R22D] yielded a protein stability index of 2.18. In the case of YQRVLPLPIFTPAKMGATKEEMED [R22M], the protein stability index is reported as 1.9. YQRVLPLPIFTPAKMGATKEEWED [R22W] showed a protein stability index of 1.71. With YQRVLPLPIFTPAKMGATKEENED [R22N] the protein stability index was 2.51. YQRVLPLPIFTPAKMGATKEEHED [R22H] gave a protein stability index of 1.95. YQRVLPLPIFTPAKMGATKEEQED [R22Q] gave a protein stability index of 1.67. With YQRVLPLPIFTPAKMGATKEEKED [R22K] the protein stability index was 2.09. In the case of YQRVLPLPIFTPAKMGATKEEVED [R22V], the protein stability index is reported as 2.2. Variant YQRVLPLPIFTPAKMGATKEELED [R22L] has a protein stability index of 1.79. Variant YQRVLPLPIFTPAKMGATKEEFED [R22F] has a protein stability index of 1.85. For YQRVLPLPIFTPAKMGATKEEPED [R22P], the protein stability index was 1.87. Variant YQRVLPLPIFTPAKMGATKEEYED [R22Y] has a protein stability index of 1.63. Variant YQRVLPLPIFTPAKMGATKEECED [R22C] has a protein stability index of 2.04. YQRVLPLPIFTPAKMGATKEEEED [R22E] gave a protein stability index of 2.34.
